The values below come from PMC5041490.

Holding throughout (test): pull-down
The target of assay [1] is His-G5(1–739) Y15A (UniProt Q8TEQ6).
Assay [2] has as its target His-G5(1–739) wild type (UniProt Q8TEQ6).
Assay [3] concerns the target His-G5(1–739) Y474A (UniProt Q8TEQ6).
Assay [4] addresses His-G5(1–739) W14A (UniProt Q8TEQ6).

His-G5(1–739) Y15A, sequence (Q8TEQ6 1-739 Y15A): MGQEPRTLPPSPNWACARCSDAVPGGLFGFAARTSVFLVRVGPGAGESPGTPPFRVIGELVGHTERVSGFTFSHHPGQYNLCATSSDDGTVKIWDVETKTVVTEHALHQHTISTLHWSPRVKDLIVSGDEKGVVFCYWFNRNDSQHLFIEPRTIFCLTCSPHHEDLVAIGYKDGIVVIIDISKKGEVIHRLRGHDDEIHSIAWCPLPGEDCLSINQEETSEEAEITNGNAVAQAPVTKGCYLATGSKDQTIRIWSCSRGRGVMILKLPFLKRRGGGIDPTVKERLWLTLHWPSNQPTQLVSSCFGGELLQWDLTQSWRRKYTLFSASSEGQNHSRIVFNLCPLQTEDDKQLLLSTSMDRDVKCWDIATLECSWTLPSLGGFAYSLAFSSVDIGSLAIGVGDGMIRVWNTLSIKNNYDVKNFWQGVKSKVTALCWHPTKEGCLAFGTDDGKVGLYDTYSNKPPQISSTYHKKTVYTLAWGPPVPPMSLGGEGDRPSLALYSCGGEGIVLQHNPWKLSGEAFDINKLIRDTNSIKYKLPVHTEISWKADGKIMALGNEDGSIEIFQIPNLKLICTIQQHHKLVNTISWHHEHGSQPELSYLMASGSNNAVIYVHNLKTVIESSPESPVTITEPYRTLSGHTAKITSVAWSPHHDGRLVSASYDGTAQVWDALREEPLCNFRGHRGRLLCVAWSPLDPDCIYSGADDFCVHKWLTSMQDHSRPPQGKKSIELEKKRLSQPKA
His-G5(1–739) Y474A, sequence (Q8TEQ6 1-739 Y474A): as the sequence (Q8TEQ6 1-739 Y15A) above, with A15Y, Y474A counted along it
His-G5(1–739) wild type, sequence (Q8TEQ6 1-739): as the sequence (Q8TEQ6 1-739 Y15A) above, with A15Y counted along it
His-G5(1–739) W14A, sequence (Q8TEQ6 1-739 W14A): as the sequence (Q8TEQ6 1-739 Y15A) above, with W14A, A15Y counted along it

On to “80S ribosomes (from UniProt P05388 1-317) (complex)”, for which the fold P0 signal over the beads-ribosome background was determined as 14.4 fold in assay [1], 3 fold in assay [3] and 13.8 fold in assay [4]. In assay [2], this substance came in with a fold P0 signal over the control (beads with 80S, no His protein) of 38.8 fold.
